Here are results for one molecule from publication PMC7105484, “Crystal structures of REF6 and its complex with DNA reveal diverse recognition mechanisms” (Cell Discovery, 2020).

Settings in all cases: protein: recombinant; tags: His6-MBP or GST, TEV-cleavable; label: FAM in MST; none in crystal and EMSA; 5' overhang 1 nt on both strands, 15 bp
(In general: Mobility shift assays separate free from complexed probe on a gel.)

Data set [1] has as its target T1, REF6 K1281A (Arabidopsis thaliana, UniProt Q9STM3 1223-1360, K1281A).
T1 sequence: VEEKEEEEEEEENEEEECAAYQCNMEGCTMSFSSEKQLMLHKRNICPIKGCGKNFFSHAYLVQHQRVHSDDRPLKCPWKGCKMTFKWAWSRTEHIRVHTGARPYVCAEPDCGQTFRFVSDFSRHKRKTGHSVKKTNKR
Briefly: MST; MST: 20 mM HEPES pH 7.3, 150 mM NaCl, 0.2 mM TCEP, 0.5% CA-630, 25 C; EMSA: 30 uM protein, 10 uM dsDNA, 20 mM Tris pH 8.0, 100 mM NaCl, 2.5 mM MgCl2, 0.1% CA-630, 10% glycerol, 1 uM ZnSO4, 1 mM DTT, 4 C.

Data set [2] deals with T2, REF6 W1311A (Arabidopsis thaliana, UniProt Q9STM3 1223-1360, W1311A).
T2 sequence: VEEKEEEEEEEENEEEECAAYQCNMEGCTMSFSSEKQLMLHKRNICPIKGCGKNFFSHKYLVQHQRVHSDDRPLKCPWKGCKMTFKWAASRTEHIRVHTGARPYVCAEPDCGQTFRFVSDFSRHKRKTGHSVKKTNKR
Briefly: MST and EMSA; marked abrogation; MST: 20 mM HEPES pH 7.3, 150 mM NaCl, 0.2 mM TCEP, 0.5% CA-630, 25 C; EMSA: 30 uM protein, 10 uM dsDNA, 20 mM Tris pH 8.0, 100 mM NaCl, 2.5 mM MgCl2, 0.1% CA-630, 10% glycerol, 1 uM ZnSO4, 1 mM DTT, 4 C.

In data set [3] the target is T3, REF6 S1341W (Arabidopsis thaliana, UniProt Q9STM3 1223-1360, S1341W).
T3 sequence: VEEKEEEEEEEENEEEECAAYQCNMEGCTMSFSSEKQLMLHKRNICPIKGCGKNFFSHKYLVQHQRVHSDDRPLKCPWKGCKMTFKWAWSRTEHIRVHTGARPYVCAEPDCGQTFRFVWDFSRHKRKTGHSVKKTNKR
The data set is described as above.

B1: NAC004 m5 (dsDNA)
DNA 1: CTTTCTCTGTTTTGTC
DNA 2: GGACAAAACAGAGAAA
As a reminder, the Kd is the equilibrium constant for the complex coming apart. On to B1, for which the Kd in data set [1] amounted to 1300 nM. Also, the binding result in data set [2] and in data set [3] was “no binding” in each case.
